# Test results from IntAct's records for PubMed 17032765.
# B1: Segment polarity protein dishevelled homolog DVL-2 (Mus musculus), Q60838 (parent)
# chain: MAGSSAGGGGVGETKVIYHLDEEETPYLVKIPVPAERITLGDFKSVLQRPAGAKYFFKSMDQDFGVVKEEISDDNARLPCFNGRVVSWLVSSDTPQPEVAPPAHESRTELVPPPPPLPPLPPERTSGIGDSRPPSFHPNVSSSHENLEPETETESVVSLRRDRPRRRDSSEHGAGGHRPGGPSRLERHLAGYESSSTLMTSELESTSLGDSDEDDTMSRFSSSTEQSSASRLLKRHRRRRKQRPPRMERTSSFSSVTDSTMSLNIITVTLNMEKYNFLGISIVGQSNERGDGGIYIGSIMKGGAVAADGRIEPGDMLLQVNDMNFENMSNDDAVRVLRDIVHKPGPIVLTVAKCWDPSPQAYFTLPRNEPIQPIDPAAWVSHSAALTGAFPAYPGSSSMSTITSGSSLPDGCEGRGLSVHMDMASVTKAMAAPESGLEVRDRMWLKITIPNAFLGSDVVDWLYHHVEGFPERREARKYASGLLKAGLIRHTVNKITFSEQCYYVFGDLSGGCESYLVNLSLNDNDGSSGASDQDTLAPLPGATPWPLLPTFSYQYPAPHPYSPQPPPYHELSSYTYGGGSASSQHSEGSRSSGSTRSDGGAGRTGRPEERAPESKSGSGSESELSSRGGSLRRGGEPGGTGDGGPPPSRGSTGAPPNLRALPGLHPYGAPSGMALPYNPMMVVMMPPPPPPVSTAVQPPGAPPVRDLGSVPPELTASRQSFHMAMGNPSEFFVDVM
# Variants of: B1
# Conditions: with Ankrd6, Q69ZU8-1
# Chain of Ankrd6, Q69ZU8-1 (Q69ZU8 whole entry): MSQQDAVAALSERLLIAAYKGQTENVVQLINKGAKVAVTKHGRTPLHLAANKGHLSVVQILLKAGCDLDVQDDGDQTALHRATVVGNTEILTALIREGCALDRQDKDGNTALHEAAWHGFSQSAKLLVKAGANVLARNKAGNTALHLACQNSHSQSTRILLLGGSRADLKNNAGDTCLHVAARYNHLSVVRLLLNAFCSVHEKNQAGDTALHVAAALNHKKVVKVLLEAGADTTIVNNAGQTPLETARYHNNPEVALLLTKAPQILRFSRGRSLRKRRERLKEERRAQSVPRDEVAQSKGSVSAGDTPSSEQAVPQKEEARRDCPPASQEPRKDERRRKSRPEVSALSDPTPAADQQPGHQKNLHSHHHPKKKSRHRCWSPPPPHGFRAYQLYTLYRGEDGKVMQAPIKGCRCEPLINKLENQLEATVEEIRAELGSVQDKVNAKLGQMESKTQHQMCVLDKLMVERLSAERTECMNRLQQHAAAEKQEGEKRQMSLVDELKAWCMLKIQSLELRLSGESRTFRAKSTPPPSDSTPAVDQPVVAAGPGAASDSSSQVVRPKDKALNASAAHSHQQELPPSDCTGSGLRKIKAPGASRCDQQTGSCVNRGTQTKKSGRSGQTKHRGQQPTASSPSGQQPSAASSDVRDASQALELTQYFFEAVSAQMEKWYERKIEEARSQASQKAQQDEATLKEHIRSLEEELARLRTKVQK
row,effect of a mutation on the interaction,Variant
1,decreasing interaction strength,K446M
